From PMC7746858

Molecular target: human complement C1q (human)
Assay: ELISA

## construct HLZ (6D8 heavy and light chains, C-terminal ZE3 fusion, no epitope tag) (antibody)
  fold lower C1q binding than HLZd: 10 fold
